Target: the molecule itself
Assay: release from hydrogel

B1: NT2RepCT (other)
chain: MSHTTPWTNPGLAENFMNSFMQGLSSMPGFTASQLDDMSTIAQSMVQSIQSLAAQGRTSPNKLQALNMAFASSMAEIAASEEGGGSLSTKTSSIASAMSNAFLQTTGVVNQPFINEITQLVSMFAQAGMNDVSAGNSGRGQGGYGQGSGGNAAAAAAAAAAAAAAAGQGGQGGYGRQSQGAGSAAAAAAAAAAAAAAGSGQGGYGGQGQGGYGQSGNSVTSGGYGYGTSAAAGAGVAAGSYAGAVNRLSSAEAASRVSSNIAAIASGGASALPSVISNIYSGVVASGVSSNEALIQALLELLSALVHVLSSASIGNVSSVGVDSTLNVVQDSVGQYVG
B1: binds.
